{"source": "patent US6387642", "binders": {"B1": {"name": "Recombinant histidine-tagged Myt1 purified from baculovirus-infected Sf9 cells (enzyme, not shown: small tags and cut ends)", "chain": "MPVPGDDMGETPLTRTPIPMPAYFSQAEQSFSLKKRGRSLCYTLPPRPPVKSALPVSRIFPNKQRSWSQPRPQSVSFRSPQNKTPASKLYDQSKGDTFFKQCFKSICKLGRGSFGEVYKVQSLEDGCFYAVKRSVSPFRGESDRQRKLQEVRKHERVGEHPNCLRFVRAWEEKRMLYLQTELCAGSLQQHSEEFAGSLPPRRVWNITCDLLHGLKHLHDRNLLHLDIKPANVFISFSGVCKLGDFGLMVELDGTEGSGEAQEGDPRYMAPELLDGIFSKAADVFSLGMSLLEVACNMELPKGGDGWQQLRQGHLPTEFTSDLPPDFLKVLSAMLEPDYRRRATVDWLLSLPAIRNAERWRMVTLAQERTLGKIIAVYQFIVWLLSFVFQWLNRPVIGFLHYCGLRALPRSPPCSPFPNHLGESSFSSDWDDESLGDDVFEVPPSPLATHRNLTYHGQELIGRHSPDLLSRPSLGSTSTPRNLSPEFSMRKRSALPLTPNVSRISQDSTGKSRSPSTSHSSSGFVDAEVQRTLFLPRNLLGMFDDATEQ"}, "B2": {"name": "Endogenous Xenopus Myt1 from interphase egg extract (protein)", "chain": "B1 chain"}, "B3": {"name": "M phase form of endogenous Xenopus Myt1 (from cytostatic factor-arrested egg extract) (protein)", "chain": "B1 chain"}}, "key": {"[1]": {"biological_target": "Cdc2-cyclin B1 complex containing the T14A mutant of Xenopus Cdc2"}, "[2]": {"biological_target": "Cdc2-cyclin B1 complex containing the T14A,Y15F double mutant of Xenopus Cdc2"}, "[3]": {"biological_target": "Cdc2-cyclin B1 complex containing the T161A mutant of Xenopus Cdc2"}, "[4]": {"biological_target": "Cdc2-cyclin B1 complex containing the Y15F mutant of Xenopus Cdc2"}, "[5]": {"biological_target": "Cdc2-cyclin B1 complex containing the triple mutant T14A,Y15F,N133A of Xenopus Cdc2"}, "[6]": {"biological_target": "Purified recombinant Cdc2-cyclin B1 complex containing wild-type Xenopus Cdc2"}, "[7]": {"biological_target": "Cdc2-cyclin B1 complex containing the T14A mutant of Xenopus Cdc2 (Xenopus)", "experiment": "cell-based or functional assay"}, "[8]": {"biological_target": "Cdc2-cyclin B1 complex containing the Y15F mutant of Xenopus Cdc2 (Xenopus)", "experiment": "cell-based or functional assay"}, "[9]": {"biological_target": "Cdc2-cyclin B1 complex containing the catalytically inactive N133A mutant of Xenopus Cdc2 (Xenopus)", "experiment": "cell-based or functional assay"}, "[10]": {"biological_target": "Purified recombinant Cdc2-cyclin B1 complex containing wild-type Xenopus Cdc2 (Xenopus)", "experiment": "cell-based or functional assay"}, "[11]": {"biological_target": "Cdc2-cyclin B1 complex containing the catalytically inactive N133A mutant of Xenopus Cdc2"}}}
{"binder": "B1", "values": [{"measurement": "phosphorylation of Cdc2 mutant, autoradiography", "setting": "[1]", "result": "Myt1 can phosphorylate both the TI4A (Thr^14 changed to Ala) and Y15F (Tyr^15 changed to Phe) mutants of Cdc2"}, {"measurement": "reduction of Cdc2-associated histone H1 kinase activity", "setting": "[1]", "result": "a large reduction in activity (60 and 50%, respectively)"}, {"measurement": "phosphorylation and H1 kinase activity", "setting": "[2]", "result": "the T14A, Y15F double mutant of Cdc2 was neither phosphorylated nor inactivated by Myt1"}, {"measurement": "phosphorylation of Cdc2 mutant, autoradiography", "setting": "[2]", "result": "the T14A,Y15F double mutant was not a substrate for Myt1"}, {"measurement": "phosphorylation of Cdc2 mutant, autoradiography", "setting": "[3]", "result": "Myt1 did not phosphorylate the T161A mutant of Cdc2 ( FIG. 2A ) on either tyrosine or threonine"}, {"measurement": "phosphorylation of Cdc2 mutant, autoradiography", "setting": "[4]", "result": "Myt1 can phosphorylate both the TI4A (Thr^14 changed to Ala) and Y15F (Tyr^15 changed to Phe) mutants of Cdc2"}, {"measurement": "reduction of Cdc2-associated histone H1 kinase activity", "setting": "[4]", "result": "a large reduction in activity (60 and 50%, respectively)"}, {"measurement": "phosphorylation of Cdc2 mutant, autoradiography", "setting": "[5]", "result": "the triple mutant T14A,Y15F, N133A was not a substrate for Myt1"}, {"measurement": "phosphorylation of Cdc2, compared with single mutants", "setting": "[6]", "result": "wild-type Cdc2 appears to be phosphorylated more efficiently than either single mutant"}, {"measurement": "phosphorylation of Cdc2 in the presence of [γ-32P]ATP, autoradiography", "setting": "[6]", "result": "Recombinant Myt1 efficiently phosphorylated cyclin-associated, wild-type Cdc2"}, {"measurement": "reduction of Cdc2-associated histone H1 kinase activity", "setting": "[6]", "result": "Treatment of wild-type Cdc2 with Myt1 caused a 90% reduction in its H1 kinase activity"}, {"measurement": "phosphorylation of Cdc2 in the presence of [γ-32P]ATP", "setting": "monomeric Cdc2", "result": "Myt1 did not phosphorylate monomeric Cdc2"}, {"measurement": "phosphoamino acid analysis: share of label in phosphotyrosine", "setting": "[7]", "result": 89, "unit": "%"}, {"measurement": "phosphoamino acid analysis: share of 32P in phosphothreonine", "setting": "[8]", "result": 96, "unit": "%"}, {"measurement": "phosphoamino acid analysis: phosphoserine", "setting": "[9]", "result": "< 0.7", "unit": "%"}, {"measurement": "phosphoamino acid analysis: phosphothreonine", "setting": "[9]", "result": 75, "unit": "%"}, {"measurement": "phosphoamino acid analysis: phosphotyrosine", "setting": "[9]", "result": 24, "unit": "%"}, {"measurement": "phosphoamino acid analysis: share of 32P in phosphothreonine", "setting": "[10]", "result": 77, "unit": "%"}, {"measurement": "phosphoamino acid analysis: share of 32P in phosphotyrosine", "setting": "[10]", "result": 20, "unit": "%"}]}
{"binder": "B2", "values": [{"measurement": "phosphorylation of Cdc2 by immunoprecipitated Myt1", "setting": "[6]", "result": "The immunoprecipitated Myt1 protein efficiently phosphorylated Cdc2 in both assays"}, {"measurement": "share of Cdc2 shifted to its Thr14-Tyr15 doubly phosphorylated form by the Myt1-depleted extract", "setting": "[6]", "result": "the Myt1-depleted extract phosphorylated shifted only about 20% of the substrate"}, {"measurement": "share of Cdc2 shifted to its Thr14-Tyr15 doubly phosphorylated form by the control extract", "setting": "[6]", "result": "the control extract shifted ˜80% of the Cdc2 to its Thr^14-Tyr^15 doubly phosphorylated form"}, {"measurement": "tyrosine phosphorylation of Cdc2 in Myt1-depleted extract, anti-phosphotyrosine immunoblot", "setting": "[6]", "result": "The tyrosine phosphorylation of Cdc2 was dramatically reduced in the Myt1-depleted extract"}]}
{"binder": "B3", "values": [{"measurement": "Cdc2-specific kinase activity of immunoprecipitated Myt1, relative to the interphase form", "setting": "[11]", "result": "The M phase form was about one-fifth as active as the Myt1 protein from either type of interphase extract"}]}
